The values that follow come from article PMC3561583.

The target in this assay is FLAG-Sur1 (UniProt Q09427). Description: FRET or BRET.
Chain of UniProt Q09427 (Q09427 whole entry): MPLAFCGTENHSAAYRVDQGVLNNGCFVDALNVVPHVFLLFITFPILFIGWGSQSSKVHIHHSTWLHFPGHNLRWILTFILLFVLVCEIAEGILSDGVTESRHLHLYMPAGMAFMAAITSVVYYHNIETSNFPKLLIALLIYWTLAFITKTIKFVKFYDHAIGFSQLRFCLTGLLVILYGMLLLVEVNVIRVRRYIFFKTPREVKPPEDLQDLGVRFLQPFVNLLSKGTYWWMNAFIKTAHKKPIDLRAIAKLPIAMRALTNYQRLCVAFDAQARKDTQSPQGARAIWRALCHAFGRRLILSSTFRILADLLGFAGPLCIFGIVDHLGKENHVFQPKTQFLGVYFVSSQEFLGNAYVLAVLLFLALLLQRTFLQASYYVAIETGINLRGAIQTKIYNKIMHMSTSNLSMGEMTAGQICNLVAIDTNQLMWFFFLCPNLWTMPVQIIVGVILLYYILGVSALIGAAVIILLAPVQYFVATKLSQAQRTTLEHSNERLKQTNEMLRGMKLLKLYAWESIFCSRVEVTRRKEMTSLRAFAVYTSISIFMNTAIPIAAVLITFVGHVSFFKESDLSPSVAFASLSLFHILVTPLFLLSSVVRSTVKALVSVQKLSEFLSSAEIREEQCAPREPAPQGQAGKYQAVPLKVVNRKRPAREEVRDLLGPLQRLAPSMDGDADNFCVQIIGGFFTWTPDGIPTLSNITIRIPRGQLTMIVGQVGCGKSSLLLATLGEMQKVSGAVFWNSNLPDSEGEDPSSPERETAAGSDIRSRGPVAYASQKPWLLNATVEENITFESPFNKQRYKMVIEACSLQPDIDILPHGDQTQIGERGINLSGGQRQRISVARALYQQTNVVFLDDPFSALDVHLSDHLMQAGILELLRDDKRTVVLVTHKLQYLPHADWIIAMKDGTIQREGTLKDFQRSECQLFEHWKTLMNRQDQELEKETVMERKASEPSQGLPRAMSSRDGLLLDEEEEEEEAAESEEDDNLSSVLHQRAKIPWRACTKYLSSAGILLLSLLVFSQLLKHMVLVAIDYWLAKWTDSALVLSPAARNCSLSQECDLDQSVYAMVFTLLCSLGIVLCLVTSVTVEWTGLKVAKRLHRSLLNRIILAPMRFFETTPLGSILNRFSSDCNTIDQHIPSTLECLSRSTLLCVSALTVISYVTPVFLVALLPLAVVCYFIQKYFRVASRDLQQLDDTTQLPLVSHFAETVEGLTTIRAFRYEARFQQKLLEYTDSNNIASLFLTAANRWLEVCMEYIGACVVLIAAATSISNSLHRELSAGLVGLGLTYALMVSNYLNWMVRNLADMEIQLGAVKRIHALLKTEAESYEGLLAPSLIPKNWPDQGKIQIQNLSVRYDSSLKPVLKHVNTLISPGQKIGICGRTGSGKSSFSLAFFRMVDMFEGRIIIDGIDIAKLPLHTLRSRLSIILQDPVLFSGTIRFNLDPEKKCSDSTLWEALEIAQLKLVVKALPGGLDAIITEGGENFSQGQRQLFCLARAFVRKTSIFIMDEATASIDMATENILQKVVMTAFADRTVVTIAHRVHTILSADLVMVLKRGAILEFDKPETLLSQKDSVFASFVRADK

Substance “Myc-Trpm4 (from UniProt Q7TN37-1 1-1213) (natural protein)” had an FRET efficiency at steady state of 11%.
